Reference: the supplement of paper PMC9170038

How the values were obtained:
[1] = test system: MS2 coat protein; experiment: apparent KD of MS2 coat protein, switch OFF state (with FMN for OFF switches, without FMN for ON switches); designed switch direction (-1 OFF switch, 1 ON switch): -1; higher = weaker reporter binding; settings: FMN input: 0 or 200 uM; Eterna round: R93 (includes R88 designs)
Summary of the method: (§1)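 Designed RNA switches were transcribed on-chip from Illumina sequencing clusters. They were then titrated with SNAP-549-labelled MS2 coat protein (twofold steps, 0.7 or 1.5 nM to 3 µM; 0.8–1.5 h to 10–20 min per step) in 100 mM Tris-HCl pH 7.5, 80 mM KCl, 4 mM MgCl2, without or with constant ligand. Apparent KD is the per-design median of normalised cluster binding-curve fits.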

[2] = test system: MS2 coat protein; experiment: apparent KD of MS2 coat protein, switch ON state; designed switch direction (-1 OFF switch, 1 ON switch): -1; higher = weaker reporter binding; settings: FMN input: 0 or 200 uM; Eterna round: R93 (includes R88 designs)
Summary of the method: as §1

| Sequence | apparent KD of MS2 coat protein [1] | apparent KD of MS2 coat protein [2] |
| --- | --- | --- |
| AAAAAGUGAGGAUAUGCGAAGGCGUCUGAUAGACGAGGCUAGCAGAAGGCACAUGAGGAUCACCCAUGUGGGAG [Mat - Exclusion 4 - Eli mod - D93] | 148 nM | 71.5 nM |
| AGCAGUACAGGAUAUACAUGAGGAUCACCCAUGUGAAAAUAAAGUGGCGUACCACAAAGUAGAAGGGUACUGCA [Mat - Exclusion 3 - JL mod - D31] | 104 nM | 34.2 nM |
| AAAAAUGGAGGAUAUACAUGAGGAUCACCCAUGUGUAACUAUACUAAGCACACCUCACGUAGAAGGCCAAAAAA [Gilly Gone Silly 12 - Jieux - Exclusion 3] | 321 nM | 105 nM |
| AGGGAGUGAGGAUAUGCGAAAGAAAAAGAAAAAAAAAAAAAGCAGAAGGUACAUGAGGAUCACCCAUGUAAAAA [milkweed 6] | 29.1 nM | 29.8 nM |
| AAAAUGUGAGGAUAUCCGAAGGCGUCUGAUAGACGAGGCUAGGAGAAGGCACAUGAGGAUCACCCAUGUAAAAA [Banishment 11 - Jieux - Exclusion 4] | 137 nM | 78.8 nM |
| AGCAAGUUAGGAUAUGCGAAGUCAGGACACACACUGACAAAGCAGAAGGAACAUGAGGAUCACCCAUGUAAGCA [Mat - Exaclusion 4 - Eli mod - D64] | 20.8 nM | 29.9 nM |
| CUCUUGUGAGGAUAUCAAAGAAAAGAAGAGAAAGAAAAGAAUGAGAAGGCACAUGAGGAUCACCCAUGUAAGAA [EteRNA is fun!] | 59.5 nM | 28.9 nM |
| AACAGGACAGGAUAUACAUGAGGAUCACCCAUGUGAGAAUUUAGCAGCGUACCACACAGUAGAAGGGUCAUGGA [Ruby 23] | 48.6 nM | 40.8 nM |
| AACAGUACAGGAUAUACAUGAGGAUCACCCAUGUGAGAAACCAAUGGCGUACCAUAAAGUAGAAGGGUACUGGA [Moding Maslow Revisited (73) 31] | 158 nM | 62.3 nM |
| AAAAAUGGAGGAUAUACGAACAUGUCAAAAGACGUGAAGGGACAUGAGGAUCACCCAUGUAGAAGGCUAAAAAA [JL Stem Breaker 3] | 40.3 nM | 87.1 nM |
| GAAAAGUGAGGAUAUGUCAAAAGUCACAAAAGUGACAAAAGACAGAAGGCACAUGAGGAUCACCCAUGUGAAAG [Mat - Exaclusion 4 - Eli mod - D54] | 28.4 nM | 24.7 nM |
| AAAAAGUCAGGAUAUAUCAAAAAAAAAGAAAAAAAAAAAAGAUAGAAGGGACAUGAGGAUCACCCAUGUAAAAA [water's exclusion 4 last] | 34.2 nM | 74.3 nM |
| CUCUAGUGAGGAUAUGGAAGAAAAGAAAAGAAAGAAAAGAACCAGAAGGCACAUGAGGAUCACCCAUGUAAGAA [EteRNA is fun!] | 66 nM | 47.7 nM |
| AAAAAGGCAGGAUAUACAUGAGGAUCACCCAUGUGAAAAAAAAAAAAAAAAAAAAAGUGUAGAAGGGUCAAAAA [Exclusion 3 - Omei 2] | 51.4 nM | 51.7 nM |
| AAAUAGUUAGGAUAUACAUGAGGAUCACCCAUGUGGACUUAUGGAGAAUAGUUUAAUGGUAGAAGGGACUAAAA [EX2 Malc#25] | 36.5 nM | 52.8 nM |
| AAAAAACAUGAGGAUCACCCAUGUAAGGAUAUCUAAAAUAAAAGAAAAAUAAAGAAAAGGAGAAGGUAUAUGAA [JL wbt mod 20] | 25.7 nM | 19.8 nM |
| AAAAAACAUGAGGAUCACCCAUGUGAGGAUAUCCAAAAGUUAAAGAAAAAGACGAAAAGGAGAAGGCGCAAAAA [Fiskers Exclusion D3] | 40.7 nM | 68.7 nM |
| AAAAAGUGAGGAUAUAUAUGAAACAAAAAGAAAAAAAAAAAACAUGAGGAUCACCCAUGUAGAAGGCGCAAAAA ['Exclusion 2' Lab] | 21.5 nM | 27.1 nM |
| AACACACAUGAGGAUCACCCAUGUAAGGAUAUGCAAGCAAGAAGAAAGAACAGAAAAAGCAGAAGGUACACACA [Amethyst 74] | 24.3 nM | 28.4 nM |
| AAAAAGAGAGGAUAUACAUGAGGAUCACCCAUGUGACAUUAAAUAAAUAAAAUAAAGUGUAGAAGGCUCAAAAA [65%, Moding Exclusion3-cac2, 23] | 136 nM | 38.1 nM |
| AGUUGGCGAGGAUAUACAUGAGGAUCACCCAUGUGAGAGAUAAAAGUGAGAAAGAAAAGUAGAAGGCGCUCACA [JL Lego Mod 15] | 60.1 nM | 107 nM |
| AAGUCCAUAGGAUAUAUAUGGAUAUACAUUUAUGUAGAACUACAUGAGGAUCACCCAUGUAGAAGGAUGGAAUA [Mat - Same state - Mayanna Mod - D141] | 14.1 nM | 19.5 nM |
